Experimental data reported in IntAct's records for PubMed 20562859.

B1: Gamma-aminobutyric acid receptor-associated protein (Homo sapiens), O95166 (parent)
chain: MKFVYKEEHPFEKRRSEGEKIRKKYPDRVPVIVEKAPKARIGDLDKKKYLVPSDLTVGQFYFLIRKRIHLRAEDALFFFVNNVIPPTSATMGQLYQEHHEEDFFLYIAYSDESVYGL
partner: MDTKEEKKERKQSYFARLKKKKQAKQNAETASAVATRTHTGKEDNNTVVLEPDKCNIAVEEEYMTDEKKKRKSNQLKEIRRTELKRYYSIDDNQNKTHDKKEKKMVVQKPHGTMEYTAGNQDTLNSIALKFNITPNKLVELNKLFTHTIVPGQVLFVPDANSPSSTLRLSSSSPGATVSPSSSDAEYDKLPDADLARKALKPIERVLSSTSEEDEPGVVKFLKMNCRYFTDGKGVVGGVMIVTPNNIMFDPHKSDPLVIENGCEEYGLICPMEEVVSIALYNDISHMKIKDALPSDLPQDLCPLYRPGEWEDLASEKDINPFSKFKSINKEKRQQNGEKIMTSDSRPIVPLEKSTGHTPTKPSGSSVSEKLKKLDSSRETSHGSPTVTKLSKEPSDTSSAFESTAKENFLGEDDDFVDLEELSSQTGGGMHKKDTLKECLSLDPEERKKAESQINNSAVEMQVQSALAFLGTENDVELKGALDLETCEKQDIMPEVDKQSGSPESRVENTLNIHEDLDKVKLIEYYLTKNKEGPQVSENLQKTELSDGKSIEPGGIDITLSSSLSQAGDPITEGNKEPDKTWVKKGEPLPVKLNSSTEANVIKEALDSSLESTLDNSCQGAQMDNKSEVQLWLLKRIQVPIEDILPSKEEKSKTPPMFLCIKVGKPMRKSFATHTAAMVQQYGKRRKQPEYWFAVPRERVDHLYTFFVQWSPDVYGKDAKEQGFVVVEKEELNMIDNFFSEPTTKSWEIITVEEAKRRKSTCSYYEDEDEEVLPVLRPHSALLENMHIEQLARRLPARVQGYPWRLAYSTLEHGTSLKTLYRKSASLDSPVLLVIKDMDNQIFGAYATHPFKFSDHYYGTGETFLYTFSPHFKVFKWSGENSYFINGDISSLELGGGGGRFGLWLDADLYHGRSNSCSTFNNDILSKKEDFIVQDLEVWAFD
B2: Gamma-aminobutyric acid receptor-associated protein (Homo sapiens), O95166 (parent)
chain: B1 chain
partner: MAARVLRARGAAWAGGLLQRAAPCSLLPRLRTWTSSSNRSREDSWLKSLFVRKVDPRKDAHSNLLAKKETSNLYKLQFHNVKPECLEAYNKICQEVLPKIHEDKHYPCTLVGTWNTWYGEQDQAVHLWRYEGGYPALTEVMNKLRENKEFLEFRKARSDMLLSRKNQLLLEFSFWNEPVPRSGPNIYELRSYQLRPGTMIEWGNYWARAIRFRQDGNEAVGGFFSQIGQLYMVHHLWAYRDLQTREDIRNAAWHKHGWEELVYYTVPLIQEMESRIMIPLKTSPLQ
B3: Gamma-aminobutyric acid receptor-associated protein (Homo sapiens), O95166 (parent)
chain: B1 chain
partner: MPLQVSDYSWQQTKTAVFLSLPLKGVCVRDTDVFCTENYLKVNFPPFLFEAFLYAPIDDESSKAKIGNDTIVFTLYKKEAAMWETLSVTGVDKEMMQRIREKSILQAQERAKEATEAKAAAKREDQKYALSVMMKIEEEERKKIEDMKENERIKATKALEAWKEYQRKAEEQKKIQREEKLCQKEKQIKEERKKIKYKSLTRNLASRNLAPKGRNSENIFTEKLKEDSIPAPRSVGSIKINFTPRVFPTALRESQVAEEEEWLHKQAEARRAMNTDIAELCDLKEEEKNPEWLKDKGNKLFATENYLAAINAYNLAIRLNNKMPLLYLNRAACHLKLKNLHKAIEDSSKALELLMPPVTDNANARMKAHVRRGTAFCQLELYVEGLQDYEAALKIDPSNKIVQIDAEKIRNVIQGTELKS
B4: Gamma-aminobutyric acid receptor-associated protein (Homo sapiens), O95166 (parent)
chain: B1 chain
partner: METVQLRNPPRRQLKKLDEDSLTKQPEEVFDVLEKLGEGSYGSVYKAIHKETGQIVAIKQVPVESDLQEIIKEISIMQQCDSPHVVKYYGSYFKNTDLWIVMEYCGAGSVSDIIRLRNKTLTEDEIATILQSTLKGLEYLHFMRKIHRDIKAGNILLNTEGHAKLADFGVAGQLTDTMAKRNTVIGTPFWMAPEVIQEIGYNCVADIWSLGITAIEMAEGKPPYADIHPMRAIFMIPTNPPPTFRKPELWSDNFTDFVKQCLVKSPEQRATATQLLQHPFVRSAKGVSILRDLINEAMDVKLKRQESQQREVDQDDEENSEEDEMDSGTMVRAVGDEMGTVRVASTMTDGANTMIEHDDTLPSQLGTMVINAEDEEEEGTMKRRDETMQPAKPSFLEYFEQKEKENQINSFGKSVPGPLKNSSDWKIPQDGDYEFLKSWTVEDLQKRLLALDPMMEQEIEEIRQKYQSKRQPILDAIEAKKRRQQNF
B5: Gamma-aminobutyric acid receptor-associated protein (Homo sapiens), O95166 (parent)
chain: B1 chain
partner: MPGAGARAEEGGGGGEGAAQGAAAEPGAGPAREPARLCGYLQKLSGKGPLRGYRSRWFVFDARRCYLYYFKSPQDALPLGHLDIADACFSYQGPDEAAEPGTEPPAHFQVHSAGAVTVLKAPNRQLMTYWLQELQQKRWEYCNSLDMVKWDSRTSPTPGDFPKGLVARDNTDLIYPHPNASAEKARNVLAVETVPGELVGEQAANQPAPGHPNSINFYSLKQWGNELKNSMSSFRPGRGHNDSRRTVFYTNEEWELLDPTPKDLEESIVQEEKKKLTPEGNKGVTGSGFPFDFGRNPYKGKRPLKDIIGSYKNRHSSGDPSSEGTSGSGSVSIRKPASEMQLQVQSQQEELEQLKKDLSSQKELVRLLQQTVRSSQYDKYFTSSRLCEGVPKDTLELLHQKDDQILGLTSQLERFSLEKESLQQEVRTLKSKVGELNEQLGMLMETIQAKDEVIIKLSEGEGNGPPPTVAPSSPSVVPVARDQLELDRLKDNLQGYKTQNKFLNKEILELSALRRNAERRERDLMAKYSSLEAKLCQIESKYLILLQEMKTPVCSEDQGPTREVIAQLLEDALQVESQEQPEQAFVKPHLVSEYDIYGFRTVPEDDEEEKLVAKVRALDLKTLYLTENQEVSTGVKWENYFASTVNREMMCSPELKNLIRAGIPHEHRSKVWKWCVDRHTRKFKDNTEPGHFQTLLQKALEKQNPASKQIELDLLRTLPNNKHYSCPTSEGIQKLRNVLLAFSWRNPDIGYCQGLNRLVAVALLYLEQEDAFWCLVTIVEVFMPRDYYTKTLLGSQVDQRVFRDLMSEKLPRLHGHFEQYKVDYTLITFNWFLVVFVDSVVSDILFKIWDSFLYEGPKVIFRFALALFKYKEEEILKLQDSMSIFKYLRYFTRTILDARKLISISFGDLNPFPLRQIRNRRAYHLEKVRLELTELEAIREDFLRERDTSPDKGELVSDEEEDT
B6: Gamma-aminobutyric acid receptor-associated protein (Homo sapiens), O95166 (parent)
chain: B1 chain
partner: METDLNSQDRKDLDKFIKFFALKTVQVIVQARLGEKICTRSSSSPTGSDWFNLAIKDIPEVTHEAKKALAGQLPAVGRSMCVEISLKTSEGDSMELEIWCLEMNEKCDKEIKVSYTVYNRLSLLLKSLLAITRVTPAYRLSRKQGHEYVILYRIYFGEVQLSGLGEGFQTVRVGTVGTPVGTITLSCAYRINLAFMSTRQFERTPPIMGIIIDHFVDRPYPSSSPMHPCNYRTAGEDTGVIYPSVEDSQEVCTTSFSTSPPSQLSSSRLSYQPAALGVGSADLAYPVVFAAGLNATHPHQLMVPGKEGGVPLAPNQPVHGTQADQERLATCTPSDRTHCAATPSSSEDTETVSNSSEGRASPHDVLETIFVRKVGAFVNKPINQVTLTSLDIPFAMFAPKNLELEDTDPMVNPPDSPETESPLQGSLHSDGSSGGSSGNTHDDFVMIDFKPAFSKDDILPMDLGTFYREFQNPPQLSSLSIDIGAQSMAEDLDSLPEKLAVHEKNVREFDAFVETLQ
B7: Gamma-aminobutyric acid receptor-associated protein (Homo sapiens), O95166 (parent)
chain: B1 chain
partner: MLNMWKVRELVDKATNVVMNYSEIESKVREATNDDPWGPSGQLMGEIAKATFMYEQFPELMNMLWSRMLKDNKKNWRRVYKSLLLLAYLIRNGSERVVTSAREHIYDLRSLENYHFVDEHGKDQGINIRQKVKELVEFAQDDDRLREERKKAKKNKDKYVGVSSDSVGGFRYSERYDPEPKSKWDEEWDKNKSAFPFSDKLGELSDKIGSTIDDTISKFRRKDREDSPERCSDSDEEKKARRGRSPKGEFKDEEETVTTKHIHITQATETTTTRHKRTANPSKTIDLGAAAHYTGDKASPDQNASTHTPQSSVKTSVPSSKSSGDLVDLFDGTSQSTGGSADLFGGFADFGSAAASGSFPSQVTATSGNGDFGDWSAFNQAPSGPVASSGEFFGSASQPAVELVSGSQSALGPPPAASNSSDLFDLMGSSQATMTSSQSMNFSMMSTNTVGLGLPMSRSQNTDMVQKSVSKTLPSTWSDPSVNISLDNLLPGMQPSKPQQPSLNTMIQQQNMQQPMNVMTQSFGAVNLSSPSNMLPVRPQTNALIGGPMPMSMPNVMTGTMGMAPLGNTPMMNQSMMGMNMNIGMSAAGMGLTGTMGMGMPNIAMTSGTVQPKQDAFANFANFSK

Variants of: B1
Settings: with ncoa7_human NCOA7, Q8NI08

Variant	effect of a mutation on the interaction
Y49A;L50A	decreasing interaction

Variants of: B2
Settings: with nips2_human NIPSNAP2, O75323

Variant	effect of a mutation on the interaction
Y49A;L50A	increasing interaction

Variants of: B3
Settings: with daaf4_human DNAAF4, Q8WXU2

Variant	effect of a mutation on the interaction
Y49A;L50A	decreasing interaction

Variants of: B4
Settings: with stk4_human STK4, Q13043

Variant	effect of a mutation on the interaction
R71A	increasing interaction

Variants of: B5
Settings: with tbd2b_human TBC1D2B

Variant	effect of a mutation on the interaction
Y49A;L50A	decreasing interaction

Variants of: B6
Settings: with atg13_human ATG13, O75143

Variant	effect of a mutation on the interaction
Y49A;L50A	decreasing interaction

Variants of: B7
Settings: with epn4_human CLINT1, Q14677

Variant	effect of a mutation on the interaction
Y49A;L50A	decreasing interaction
